In patent publication US20250304670A1 (AstraZeneca / MedImmune, published 2025):
Each block holds one binder with its values, some of them ahead of it.

B2: Human Amyloid Beta 17-42 truncated peptide (peptide)
peptide: LVFFAEDVGSNKGAIIGLMVGGVVIA
notes: synthetic, unlabelled; also called Abeta 17-42
B4: Abet0007 IgG2 (antibody, V domains shown)
VH: EVQLLESGGGLVQPGGSLRLSCAASGFTFSVYTMWWVRQAPGKGLEWVSVIGSSGGTTVYADSVKGRFTISRDNSKNTLYLQMNSLRAEDTAVYYCAREGQQLVRPYYYYGMDVWGQGTLVTVSS
VL: QSVLTQPPSVSVSPGQTASITCSGHNLEDKFASWYQQKSGQSPVLVIYRDDKRPSGIPERFSASNSGHTATLTISGTQATDEADYYCQAQDSTTRVFGGGTKLTVL
notes: whole human IgG2 with human lambda light chain
B7: Abet0380-GL IgG1-TM (antibody, V domains shown)
VH: EVQLLESGGGLVQPGGSLRLSCAASMGNFNYQTMWWVRQAPGKGLEWVSVIGKTNENIAYADSVKGRFTISRDNSKNTLYLQMNSLRAEDTAVYYCAREWMDHSRPYYYYGMDVWGQGTLVTVSS
VL: SYELTQPPSVSVSPGQTASITCSGHNLEDKFASWYQQKPGQSPVLVIYRDDKRPSGIPERFSASNSGHTATLTISGTQAMDEADYYCSSQDTVTRVFGGGTKLTVL
notes: human IgG1 with the triple mutation L234F/L235E/P331S (TM), human lambda light chain; also called Abet0380-GL (germlined) IgG1-TM

Assays:
Abet0380-GL IgG1-TM = target: B7; assay: HTRF (TR-FRET) peptide competition: dilution series of peptide (10 uM to 0.17 nM) against 1.5 nM N-terminal biotin Abeta 1-42 for 0.5 nM Abet0380-GL IgG1-TM (Example 6)
Experimental: The assay was then incubated for a further 2 hrs at room temperature before reading on an Envision plate reader (PerkinElmer) using a standard homogeneous time resolved fluorescence (HTRF) read protocol.
The final assay volume was 20 ul and all reagents were prepared in an assay buffer comprising MOPS pH7.4 (50 mM), potassium fluoride (0.4M), tween 20 (0.1%) & fatty acid free BSA (0.1%). The assay was performed in low volume 384 well black assay plates (Costar 3676).

Abet0144-GL IgG1-TM = target: T1, Abet0144-GL IgG1-TM; assay: TR-FRET peptide competition: dilution series of unlabelled peptide against 1.5 nM biotinylated human Amyloid beta 1-42 peptide for 0.28 nM Abet0144-GL IgG1-TM (section 2.10)
T1 construct: human IgG1 with the triple mutation L234F/L235E/P331S (TM), human lambda light chain; also called Abet0144-GL (germlined) IgG1-TM
Experimental: This involved the use of Europium cryptate labelled anti-human Fc IgG (CisBio International, France; cat: 61 HFCKLB) and XL665 labelled streptavidin (CisBio International, France; cat: 611SAXLB) TR-FRET detection reagents.
Experiments were set up in Costar 384 well shallow bottom microtitre plates. […] 5 μl of assay buffer only was added to the negative binding assay control wells. […] 5 μl per well of each test peptide serial dilution was then transferred onto the 384 well assay plate. 5 μl of assay buffer only was added to the total and negative binding assay control wells. […] Finally, a combined solution was prepared containing Europium cryptate labelled anti-human Fc (2.4 nM) and XL665 labelled streptavidin (60 nM). 5 μl per well of this solution was added to all wells of the 384 well assay plate such that the final concentrations of Europium cryptate labelled anti-human Fc and XL665 labelled streptavidin were 0.6 nM and 15 nM, respectively.

Abet0007 IgG2 = target: B4; assay: HTRF peptide competition: dilution series of unlabelled peptide against 5 nM biotinylated human Amyloid beta 1-42 peptide for 0.3 nM Abet0007 IgG2 (section 1.6)
Experimental: (§1) As described above, the purified sFab fragments that bound specifically to the Amyloid beta 1-42 peptide were converted to recombinant IgG. To test the specificity of these IgGs for binding to other human Amyloid beta peptides, a competition assay was developed. […] The competition of each peptide was assessed by detecting the loss of binding of the lead IgG to the biotinylated 1-42 peptide by measuring the fluorescence resonance energy transfer (FRET) between the IgG and biotinylated 1-42 Amyloid beta using streptavidin cryptate (CisBio International, France; cat: 610SAKLB) and anti-human Fc IgG XL665 (CisBio International, France; cat: 61HFCXLB) detection reagents.
(§2) Streptavidin cryptate and anti-human Fc IgG XL665 were combined at 7 nM and 5 nM respectively in assay buffer containing 50 mM MOPS pH 7.4 (Sigma, UK; cat: M9381), 0.4 M KF (BDH Chemicals, USA; cat: 103444T), 0.1% fatty acid free bovine serum albumin (Sigma, UK; cat: A6003) and 0.1% Tween 20 (v/v) (Sigma, UK; cat: P2287). 5 μl of this solution were added to the assay plate (Costar® 384 well black shallow well, Corning Life Sciences; cat: 3676). Amyloid beta peptides were serially diluted in assay buffer using a Greiner 96 well U bottom plate (Greiner BioOne, Germany; cat: 650201). 5 μl of each peptide dilution were transferred in duplicate to the assay plate using a MiniTrak™ (PerkinElmer, USA) liquid handling robot. […]

[1] = target: T2, Biotinylated Human Amyloid Beta 1-42 peptide (human, N-terminal biotin); assay: HTRF epitope competition, purified scFv; competitor Abet0042 IgG
T2 construct: synthetic (rPeptide A1117 or Bachem H-5642); also called N-terminal biotin Abeta 1-42; synthetic biotinylated human Amyloid beta 1-42 peptide
Experimental: The scFv with unique protein sequences were expressed in E. coli and purified by affinity chromatography followed by buffer exchange. […] The time resolved fluorescence was read after two hours incubation at room temperature.
Purified scFv were serially diluted in assay buffer containing 50 mM MOPS buffer pH 7.4 (Sigma, UK; cat: M9381), 0.4 M potassium fluoride (BDH Chemicals, USA; cat: 103444T), 0.1% fatty acid free bovine serum albumin (Sigma, UK; cat: A6003) and 0.1% Tween 20 (Sigma, UK; cat: P2287) using a Greiner 96 well U bottom plate (Greiner BioOne, Germany; cat: 650201). 5 μl of each dilution of scFv was transferred in duplicate to the assay plate (Costar® 384 well black shallow well, Corning Life Sciences; cat: 3676) using a MiniTrak™ (PerkinElmer, USA) liquid handling robot. […] The assay plates were sealed and incubated at room temperature for 1 hour. Streptavidin cryptate and anti-human Fc IgG XL665 were combined at 7 nM and 20 nM respectively in assay buffer and 5 μl of this solution were added to the assay plate.

[2] = target: T2, Biotinylated Human Amyloid Beta 1-42 …; assay: SPR (BIAcore T-100), scFv over biotinylated peptide on SA chip, 1:1 Langmuir fit
Experimental: The chip surface was regenerated between cycles by a single 20 second injection of 10 mM Glycine pH 2.0 to remove scFv bound to the peptide.
A series of dilutions of each purified scFv (12.5-400 nM) were sequentially passed over the peptide surface for a sufficient amount of time to observe sensorgrams that could be fitted to an appropriate binding model with confidence. A zero-concentration buffer blank was subtracted from the main dataset to reduce the impact of any buffer artefacts or non-specific binding effects. An appropriate binding model was then fitted simultaneously to the data from each analyte titration using the BIAevaluation software.

[3] = target: T3, Human Amyloid Beta 1-43 peptide (human); assay: HTRF peptide competition against biotinylated human Amyloid beta 1-42
T3 construct: synthetic, unlabelled; also called Abeta 1-43
T3 sequence (peptide, as listed by the source): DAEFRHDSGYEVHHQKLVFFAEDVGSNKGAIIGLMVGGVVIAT
Experimental: as §1, §2

[4] = target: B2; assay: as above
Experimental: as §1, §2

[5] = target: T4, Human Amyloid Beta 1-42 peptide (human); assay: SPR (BIAcore T-100), peptide over amine-coupled IgG, 1:1 Langmuir fit, mean
T4 construct: synthetic, unlabelled; also used here for the endogenous peptide of human plasma in the depletion assay; also called unlabelled human Amyloid beta 1-42; synthetic human Amyloid beta 1-42 peptide
Experimental: The chip surface was regenerated between cycles by a single 40 second injection of 10 mM Glycine pH 2.0 to remove ligand bound to the antibody.
Blank reference flow-cell data were subtracted from each IgG dataset and a zero-concentration buffer blank was double-reference subtracted from the main data set to reduce the impact of any buffer artefacts or non-specific binding effects. An appropriate binding model was then fitted simultaneously to the data from each analyte titration using the BIAevaluation software.
These parameters were derived from a 1:1 Langmuir fit to the data.

[6] = target: T5, Human Amyloid Beta 1-40 peptide (human); assay: HTRF peptide competition: dilution series of unlabelled peptide against 5 nM biotinylated human Amyloid beta 1-42 peptide for 0.3 nM Abet0007 IgG2 (section 1.6)
T5 construct: synthetic, unlabelled; also called unlabelled human Amyloid beta 1-40
T5 sequence (peptide, as listed by the source): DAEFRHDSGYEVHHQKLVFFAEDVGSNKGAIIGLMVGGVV
Experimental: as §1, §2

[7] = target: T2, Biotinylated Human Amyloid Beta 1-42 …; assay: HTRF epitope competition; competitor Abet0144-GL IgG1-TM
[8] = target: T2, Biotinylated Human Amyloid Beta 1-42 …; assay: SPR (ProteOn), scFv over immobilised biotinylated peptide
Experimental: These experiments were performed essentially as described by Karlsson et al. (Karlsson et al., 1991). For further details see section 1.7.
The chip surface was regenerated between cycles by a single 60 second injection of 10 mM Glycine pH 2.0 to remove scFv bound to the peptide.
Each scFv at 100-200 nM was sequentially passed over the peptide surface for a sufficient amount of time to observe sensorgrams that could be fitted to an appropriate binding model with confidence. An irrelevant scFv blank was subtracted from the main dataset to reduce the impact of any buffer artefacts or non-specific binding effects. An appropriate binding model was then fitted to the data.

[9] = target: T6, Amyloid beta plaques on human Alzheimer's Disease brain sections (human, UniProt P05067 672-713); assay: in vitro immunohistochemistry, core plaques
T6 construct: mixture of Amyloid beta species in tissue; also called native Amyloid beta; human AD brain sections

binding result (Abet0380-GL IgG1-TM): no binding (tested: 1e-5 M (log M -5))
binding result (Abet0144-GL IgG1-TM): no binding (tested: 1e-5 M (logM -5))
B1: Human Amyloid Beta 1-16 truncated peptide (peptide)
peptide: DAEFRHDSGYEVHHQK
notes: synthetic, unlabelled; also called Abeta 1-16

IC50 [1]: 5.5 nM
Kd [2]: 33.2 nM
koff [2]: 0.00666 s⁻¹
kon [2]: 201000 M⁻¹ s⁻¹
B3: Abet0144 scFv (scFv, V domains shown, not shown: small tags and cut ends)
VH: EVQLLESGGGLVQPGGSLRLSCAASGFTFSVYTMWWVRQAPGKGLEWVSVIGSSGGTTVYADSVKGRFTISRDNSKNTLYLQMNSLRAEDTAVYYCAREWMDHSRPYYYYGMDVWGQGTLVTVSS
VL: QSVLTQPPSVSVSPGQTASITCSGHNLEDKFASWYQQKSGQSPVLVIYRDDKRPSGIPERFSASNSGHTATLTISGTQATDEADYYCQAQDSTTRVFGGGTKLTVL
notes: non-germlined clone; VH is that of Abet0144-GL (no residues changed on germlining); also called most improved clone

IC50 [7]: 0.66 nM
Kd [8]: 0.354 nM
koff [8]: 7.97e-05 s⁻¹
kon [8]: 225000 M⁻¹ s⁻¹
B5: Abet0382 scFv (scFv, V domains shown, not shown: small tags and cut ends)
VH: EVQLLESGGGLVQPGGSLRLSCAASGFHFTNSIMWWVRQAPGKGLEWVSVIGSEAHRVTYADSVKGRFTISRDNSKNTLYLQMNSLRAEDTAVYYCAREWMDHSRPYYYYGMDVWGQGTLVTVSS
VL: SYELIQPPSVSVSPGQTASITCSGHNLEDKFASWYQQKPGQSPVLVIYRDDKRPSGIPERFSATNSGHTATLTISGTQATDEADYYCSSQDSVTRVFGGGTKLTVL
notes: purified scFv from E. coli

The remaining lines, values behind:

Binder: B2
binding result (Abet0007 IgG2): binds

Binder: B4
binding result [3]: binds
binding result [4]: binds
Kd [5]: 473 nM
koff [5]: 0.074 s⁻¹
kon [5]: 160000 M⁻¹ s⁻¹
binding result [6]: no binding (tested: about 2.5e-6 M (Log M about -5.6))

B6: Abet0007 scFv (scFv, V domains shown, not shown: small tags and cut ends)
VH: EVQLLESGGGLVQPGGSLRLSCAASGFTFSVYTMWWVRQAPGKGLEWVSVIGSSGGTTVYADSVKGRFTISRDNSKNTLYLQMNSLRAEDTAVYYCAREGQQLVRPYYYYGMDVWGQGTLVTVSS
VL: QSVLTQPPSVSVSPGQTASITCSGHNLEDKFASWYQQKSGQSPVLVIYRDDKRPSGIPERFSASNSGHTATLTISGTQATDEADYYCQAQDSTTRVFGGGTKLTVL
notes: purified scFv from E. coli (pCantab10.5); also called original lead; parent clone
IC50 [1]: 159 nM

Binder: B7
plaque staining score (0-4) [9]: 3
